In the supplement of paper PMC7877785:
± gives the uncertainty stated by the source.

Assay: self-splicing fitness, log relative to wild type (ln ratio); higher = more splicing; Tetrahymena group I intron in knt gene, E. coli kanamycin selection, DiMSum; sequences stand for … in CUCUCU…GGAGGGAAAAGUUAUCAGGCAUGCACCUGGUAGCUAGUCUUUAAACCAAUAGAUUGCAUCGGUUUAAAAGGCAAGACCGUCAAAUUGCGGGAAAGGGGUCAACAGCCGUUCAGUACCAAGUCUCAGGGGAAACUUUGAGAUGGCCUUGCAAAGGGUAUGGUAAUAAGCUGACGGACAUGGUCCUAACCACGCAGCCAAGUCCUAAGUCAACAGAUCUUCUGUUGAUAUGGAUGCAGUUCACAGACUAAAUGUCGGUCGGGGAAGAUGUAUUCUUCUCAUAAGAUAUAGUCGGACCUCUCCUUAAUGGGAGCUAGCGGAUGAAGUGAUGCAACACUGGAGCCGCUGGGAACUAAUUUGUAUGCGAAAGUAUAUUGAUUAGUUUUGGAGUACUCGUGGUCG
How it was run: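 Six replicate transformations of E. coli BL21(DE3) with a pET-22b(+) library were grown overnight at 37°C or 30°C. The library randomised all eight P1ex-region intron nucleotides, the intron lying in the knt kanamycin-resistance gene, and plates were LB agar with or without 25 μg/mL kanamycin plus 100 μg/mL carbenicillin, 50 μM IPTG and 0.2% rhamnose. Pooled colonies were amplicon-sequenced on an Illumina HiSeq 2500, and fitness is the DiMSum error-weighted combination of wild-type-normalised replicate fold changes, kanamycin versus none.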

Sequence | self-splicing fitness (ln) (30 °C) | self-splicing fitness (ln) (37 °C)
GCCGAGCAAUAUUACGACUC | -3.37 ± 0.48 | 0.198 ± 0.28
GCCGAGCAAUAUUACGAGCG | 0.333 ± 0.15 | -0.618 ± 0.19
GCCGAGCAAUAUUACGAGUA | -2.36 ± 0.11 | -1.43 ± 0.086
GCCGAGCAAUAUUACGAGUU | -1.62 ± 0.12 | -0.709 ± 0.15
GCCGAGCAAUAUUACGCACA | -1.22 ± 0.2 | -1.51 ± 0.19
GCCGAGCAAUAUUACGCGAG | -3.29 ± 0.32 | -2.03 ± 0.32
GCCGAGCAAUAUUACGCUAC | -3.91 ± 0.31 | -4.08 ± 0.47
GCCGAGCAAUAUUACGCUAU | -2.6 ± 0.29 | -1.75 ± 0.15
GCCGAGCAAUAUUACGCUGU | -2.17 ± 0.14 | -1.57 ± 0.14
GCCGAGCAAUAUUACGGAAC | -1.82 ± 0.12 | -0.538 ± 0.12
GCCGAGCAAUAUUACGGAGA | -1.55 ± 0.093 | -1.15 ± 0.13
GCCGAGCAAUAUUACGGCAC | -2.24 ± 0.19 | -1.71 ± 0.23
GCCGAGCAAUAUUACGGCCG |  | -1.7 ± 0.47
GCCGAGCAAUAUUACGGGGA | -1.36 ± 0.069 | -0.555 ± 0.069
GCCGAGCAAUAUUACGGGUG | -0.694 ± 0.067 | -0.014 ± 0.075
GCCGAGCAAUAUUACGGUAC | -2.88 ± 0.15 | -0.908 ± 0.24
GCCGAGCAAUAUUACGGUAU | -1.89 ± 0.13 | -0.878 ± 0.12
GCCGAGCAAUAUUACGGUCA | -1.63 ± 0.098 | -0.977 ± 0.09
GCCGAGCAAUAUUACGGUUG | -1.38 ± 0.14 | -0.555 ± 0.19
GCCGAGCAAUAUUACGUAAG | -2.26 ± 0.13 | -1.09 ± 0.12
GCCGAGCAAUAUUACGUCAU | -3.5 ± 0.25 | -1.31 ± 0.17
GCCGAGCAAUAUUACGUGCC | -3.35 ± 0.15 | -2.52 ± 0.2
GCCGAGCAAUAUUACGUGUG | -1.43 ± 0.07 | -0.815 ± 0.081
GCCGAGCAAUAUUACGUGUU | -2.22 ± 0.088 | -1.66 ± 0.1

Sequence | self-splicing fitness (ln) (30 °C) | self-splicing fitness (ln) (37 °C)
GCCGAGCAAUAUUACGUUUG | -3.75 ± 0.2 | -1.54 ± 0.19
GCCGAGCAAUAUUACGUUUU | -3.18 ± 0.18 | -1.75 ± 0.14
GCCUAGCAAUAUUACGAACG | -2.19 ± 0.19 | -0.701 ± 0.27
GCCUAGCAAUAUUACGAAGC | -2.24 ± 0.13 | -2.15 ± 0.19
GCCUAGCAAUAUUACGACGU | -0.19 ± 0.058 | 0.0659 ± 0.07
GCCUAGCAAUAUUACGAGGU | -3.07 ± 0.18 | -2.9 ± 0.23
GCCUAGCAAUAUUACGAGUC | -0.636 ± 0.14 | -0.0225 ± 0.18
GCCUAGCAAUAUUACGCCAG | -2.75 ± 0.27 | -2.67 ± 0.48
GCCUAGCAAUAUUACGCCUU | -1.15 ± 0.086 | -0.212 ± 0.1
GCCUAGCAAUAUUACGCUUC | -2.42 ± 0.16 | -0.334 ± 0.13
GCCUAGCAAUAUUACGCUUG | -2.37 ± 0.17 | -1.96 ± 0.26
GCCUAGCAAUAUUACGGGAU | -0.903 ± 0.11 | 0.0611 ± 0.13
GCCUAGCAAUAUUACGGUGC | -2.59 ± 0.15 | -1.48 ± 0.14
GCCUAGCAAUAUUACGGUUC | -1.02 ± 0.07 | -1.45 ± 0.11
GCCUAGCAAUAUUACGGUUG | -3.8 ± 0.14 | -1.62 ± 0.11
GCCUAGCAAUAUUACGUGAG | -1.21 ± 0.085 | -0.757 ± 0.091
GCCUAGCAAUAUUACGUUAA | -1.86 ± 0.13 | -1.28 ± 0.13
GCCUAGCAAUAUUACGUUCA | -1.37 ± 0.16 | -1.12 ± 0.17
GCCUAGCAAUAUUACGUUCG | -2.74 ± 0.15 | -2.09 ± 0.19
GCCUAGCAAUAUUACGUUGA | -1.54 ± 0.11 | -0.577 ± 0.1
GCCUAGCAAUAUUACGUUGC | -1.05 ± 0.076 | -0.0792 ± 0.081
GCCUAGCAAUAUUACGUUUA | -2.34 ± 0.18 | -1.7 ± 0.14
GCGAAGCAAUAUUACGAACG | -1.63 ± 0.16 | -0.889 ± 0.21
GCGAAGCAAUAUUACGAAUU | -2.58 ± 0.16 | -2.38 ± 0.3
